Data taken from patent KR20150001391A.

B1: (53A1+GFP) (protein, part only; not given: linker, GFP, His tag, part only)
chain, part: ESGGGSVQVGESLRLACTASEFTFDDTDVGWYRQAPGNECELVSSINSDGGTYYTDSVKGRFTISLDNGKNTVYLQMDSLKPEDTAVYYCVADAKVKAQALGTLLCRILGNWGQGTQVTVSS
B2: (2B12+GFP) (protein, part only; not given: linker, GFP, His tag, part only)
chain, part: B1 chain, part
B3: (2E9+GFP) (protein, part only; not given: linker, GFP, His tag, part only)
chain, part: ESGGGSVQAGGSLRLSCTASGFTFADSDMGWYRQAPGKERERVAAIDSDGRTSYADSVKGRFTISKDNAKNTLYLQMNSLKPEDTAMYYCAAGVPTYDSSWCSRDYWGKGTQVTVSS
B4: (2B12+RFP) (protein, part only; not given: linker, RFP, His tag, part only)
chain, part: B1 chain, part
B5: (53A1+RFP) (protein, part only; not given: linker, RFP, His tag, part only)
chain, part: B1 chain, part
B6: (2E9+RFP) (protein, part only; not given: linker, RFP, His tag, part only)
chain, part: B3 chain, part

Molecular target: M13 박테리오파지에서 전시되는 스트렙타비딘(streptavidin)
Test: fluorescence ELISA; plate coated with streptavidin-displaying M13 phage; fusion protein at 10, 50, 100 μg/ml; ex 395 nm / em 509 nm; reference is biotin-bound GFP

Fold fluorescence against biotin-bound GFP, 2 배 (fold):
B1
B2
B3

Molecular target: M13 박테리오파지에서 전시되는 스트렙타비딘(streptavidin)
Test: fluorescence ELISA; plate coated with streptavidin-displaying M13 phage; fusion protein at 10, 50, 100 μg/ml; ex 554 nm / em 581 nm; reference is biotin-bound RFP

Fold fluorescence against biotin-bound RFP, 2 배 (fold):
B4
B5
B6
